This note sets out measurements from publication doi:10.1101/2025.06.25.661420.

The target of the experiment is SUMO fusion of the glycophorin A TM domain. Kind of experiment: SEC. In general terms: Size exclusion chromatography separates by hydrodynamic size, large species first.

By stoichiometry N is commonly meant the number of molecules, sites or subunits per partner or assembly. Consider “SUMO fusion of the glycophorin A TM domain (domain or fragment)”, for which the stoichiometry N turned out to be 2.
